Data set [1] concerns the target T1, Nuclease H L54R/L323R/T783R (synthetic construct, L54R,L323R,T783R).
T1 chain: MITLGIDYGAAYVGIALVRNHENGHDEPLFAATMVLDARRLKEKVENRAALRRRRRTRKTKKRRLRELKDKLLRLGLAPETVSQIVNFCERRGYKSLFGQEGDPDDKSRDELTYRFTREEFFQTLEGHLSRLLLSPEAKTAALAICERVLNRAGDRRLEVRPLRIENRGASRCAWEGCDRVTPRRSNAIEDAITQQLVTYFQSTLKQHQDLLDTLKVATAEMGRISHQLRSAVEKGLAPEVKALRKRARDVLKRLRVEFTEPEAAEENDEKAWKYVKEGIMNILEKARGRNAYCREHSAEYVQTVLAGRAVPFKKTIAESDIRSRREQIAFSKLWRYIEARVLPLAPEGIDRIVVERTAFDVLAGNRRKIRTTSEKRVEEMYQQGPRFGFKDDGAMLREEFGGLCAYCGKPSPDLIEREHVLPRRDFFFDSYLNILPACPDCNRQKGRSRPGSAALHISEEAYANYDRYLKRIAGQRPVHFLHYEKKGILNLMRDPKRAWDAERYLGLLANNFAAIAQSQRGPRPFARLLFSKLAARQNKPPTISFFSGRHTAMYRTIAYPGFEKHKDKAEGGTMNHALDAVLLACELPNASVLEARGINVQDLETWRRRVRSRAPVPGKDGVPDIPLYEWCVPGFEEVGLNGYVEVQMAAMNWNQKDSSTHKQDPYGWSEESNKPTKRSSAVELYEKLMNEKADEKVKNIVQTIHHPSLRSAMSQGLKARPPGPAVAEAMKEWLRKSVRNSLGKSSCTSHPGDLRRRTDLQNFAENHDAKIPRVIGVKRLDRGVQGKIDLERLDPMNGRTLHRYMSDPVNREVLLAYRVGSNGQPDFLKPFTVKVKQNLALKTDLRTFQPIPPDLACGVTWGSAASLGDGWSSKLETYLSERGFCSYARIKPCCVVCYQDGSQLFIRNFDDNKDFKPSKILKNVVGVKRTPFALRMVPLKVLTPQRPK
Kind of data set: cell_activity; HEK293T; PAM AAC. The settings on record: tags: N-term SV40 NLS, XTEN linker + C-term nucleoplasmin NLS. As for the experimental part:
(§1) HEK293T cells were transfected with plasmids expressing the Nuclease H polypeptides and the gRNAs provided herein following the methods provided in Example 1 above. Gene editing efficiencies were determined by NGS following the methods also provided in Example 1. The NGS results were analyzed also following the methods provided in Example 1 above.
(§2) Each Nuclease H variant and RNA guide (see Table 16) was cloned as described in Example 9. HEK293T cells were further transfected, followed by NGS analysis, as described in Example 10. For each target, indel ratios, referring to the percentage of NGS reads comprising indels, were calculated for the reference Nuclease H (SEQ ID NO: 64) and for each Nuclease H variant. The indel ratios shown in Table 18 were calculated as the average of two bioreplicates, each of which contained two technical replicates.

Data set [2] has as its target T2, Nuclease H T783R/E43R/A170R (synthetic construct, T783R,E43R,A170R).
T2 chain: T1 chain with E43R, R54L, A170R, R323L
Kind of data set: cell_activity; HEK293T; PAM AAC. The settings on record: tags: N-term SV40 NLS, XTEN linker + C-term nucleoplasmin NLS. The protocol:
as §1, §2

Consider one molecule from patent US20260275312, “CRISPR NUCLEASE POLYPEPTIDES AND GENE EDITING SYSTEMS COMPRISING SUCH” (ARBOR BIOTECHNOLOGIES, INC., published 2026).

Numbering of substitutions follows the chain as printed.

B1: H AAVS1-T5 RNA guide ; AAVS1-T5 target (H) (ssRNA ; dsDNA)
RNA: GGCUAUAAUCCAUGCUGACCGUUUCAAUCAACCUGAUCUCUCUGCUUGCGCUGCAGGCUUCAUAAGAUCAGUAGGUUGAAAAGAGCAUCCGUCCGACAUGCACUCCGGGAUGGGGCAGUCCCGGCUCUUGCGGUUCCCGAUGCAGUUAUGUGUCCGCGGAACACGGUGUCGGACACGUCGCAAGACAGGAUGUGAGCCCAUUAUCCACAUUAGGAUCAAUGUACGCAUGAGCAGUCCGCAAUGCCGGGGACGCU
DNA 1: GGCTATAATCCATGCTGACC
DNA 2: GGTCAGCATGGATTATAGCC
Turning to B1, the values for the activity in data set [1] and in data set [2] were 0.4 indel ratio and 0.184 indel ratio, respectively.
